Data: article PMC4223078
Where a chain is given by its changes, count along the chain named.

Assays:
Assay in all cases: EMSA
Conditions in all cases: 10 nM DNA in 15 mM HEPES pH 7.9, 40 mM KCl, 1 mM EDTA, 0.5% DTT, 5% glycerol, 30 min (incubation temperature not stated); 6% native PAGE in TAE at 4 C, SYBR …
[1] = target: T1, StpA M4T M4T (Salmonella enterica serovar Typhimurium 14028s) (UniProt A0A0F6B5K2)
T1 sequence: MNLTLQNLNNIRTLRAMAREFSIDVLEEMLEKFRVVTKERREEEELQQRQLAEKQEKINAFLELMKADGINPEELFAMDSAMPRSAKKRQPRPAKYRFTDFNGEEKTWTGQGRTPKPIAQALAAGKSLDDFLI

[2] = target: T2, StpA A77D A77D (Salmonella enterica serovar Typhimurium 14028s) (UniProt A0A0F6B5K2)
T2 sequence: T1 sequence with T4M, A77D

[3] = target: T3, StpA WT (Salmonella enterica serovar Typhimurium 14028s) (UniProt A0A0F6B5K2)
T3 sequence: T1 sequence with T4M

[4] = target: T4, StpA T37I T37I (Salmonella enterica serovar Typhimurium 14028s) (UniProt A0A0F6B5K2)
T4 sequence: T1 sequence with T4M, T37I

[5] = target: T5, H-NS (6His) (Salmonella enterica serovar Typhimurium 14028s?) (UniProt A0A0F6B244)
T5 sequence: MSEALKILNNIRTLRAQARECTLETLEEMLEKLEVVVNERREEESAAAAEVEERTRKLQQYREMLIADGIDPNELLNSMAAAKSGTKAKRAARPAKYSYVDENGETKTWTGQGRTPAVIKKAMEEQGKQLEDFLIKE

Measured: binding

CTCTCTCTGCACCAGGATATACGGCAGCGTCCATTCGATAATCACAGTTAGTTATAACAATATTATTACCAACATGTCAGTTATTTAAAGCACAGGCATAAGCTAAATAATCAAATGTTAAAAACATATAAACCCGAGCCCGTAGAATATGACATTAAGCTCATAATAAAAGCTCAACCTGACCGTTAGTACTAACAGCAGAATTACTGAAACAGTAGATTCTATCCTAACGACTTGTATTAGTTATTATAACTTTTCACCCTGTAAGAGAATACACTATTATCATGCC (double strand) [hilA 289 bp fragment]
binds: all assays above
